Experiments:
mouse CCL21 = target: T1, mouse CCL21 (mouse, UniProt P84444 24-133); assay: slot blot of human and mouse CCL21 protein probed with the monoclonal antibody
T1 construct: also called murine CCL21
T1 sequence (looked up): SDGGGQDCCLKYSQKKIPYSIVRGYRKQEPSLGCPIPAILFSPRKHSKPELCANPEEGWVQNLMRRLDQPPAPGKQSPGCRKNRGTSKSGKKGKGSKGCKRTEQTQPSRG

CCL21 pep 2 = target: T2, CCL21 pep 2; assay: slot blot; each lane holds only CCL21, pep 1 or pep 2 in the amount printed, probed with the monoclonal antibody (the legend calls it a competition)
T2 construct: One of the two peptides behind r1 of the first reading
T2 peptide: KYSQRKIPAKVVR

CCL21 pep 1 = target: T3, CCL21 pep 1; assay: as above
T3 construct: One of the two peptides behind r1 of the first reading
T3 peptide: SLLILVLAFGIPR

[1] = target: T4, human CCL21 (chemokine (C-C motif) ligand 21) (human, UniProt O00585 24-134); assay: western blot of human CCL21 protein probed with hybridoma supernatant ('Supernatent BalbC (1:10)')
T4 construct: The same entry is used for native CCL21 stained in tissue; also called hCCL21; rhCCL21
T4 sequence (looked up): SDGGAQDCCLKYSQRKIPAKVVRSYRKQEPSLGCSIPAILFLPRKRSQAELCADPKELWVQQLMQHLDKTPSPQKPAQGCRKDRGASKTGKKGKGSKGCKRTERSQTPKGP

human chemokine CCL19 = target: T5, human chemokine CCL19 (human, UniProt Q99731 22-98); assay: western blot of human CCL19 and human CCL21 probed with the monoclonal antibody
T5 sequence (looked up): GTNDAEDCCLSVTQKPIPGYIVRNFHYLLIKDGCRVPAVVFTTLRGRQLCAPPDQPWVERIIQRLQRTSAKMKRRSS

binding result (mouse CCL21): no binding (tested: 1.0 µg)
binding result (CCL21 pep 2): no binding (tested: 1.0 µg)
binding result (CCL21 pep 1): binds
binding result [1]: binds
binding result (human chemokine CCL19): no binding (tested: 100 ng)
B1: anti-CCL21 murine monoclonal antibody Clone #8 (C8) (antibody, V domains shown)
VH: EVQLQQSGAEIVRSGASVRLSCTASGFNIKDFYLNWVKQRPEQGLDWIGWIDPENGDTEYAPKFQGKATMTADTSSNTIYLHLSSLTSEDTAVYYCNAFDYDYWGQGTTLTVSS
VL: DIQMNQSPSSLSASLGDTVTITCHASQNINVWLSWYQQKPGNIPKLLIYKASNLHTGVPSRFSGSGSGTGFTLTISSLHPEDIATYYCHQGHSFPLTFGAGTKLELK
notes: Mouse monoclonal from immunized BALB/C mice; also called anti-CCL21 C8
